# Assay results: US20220112288A1 (published 2022)
# Positions count from the first letter of the chain named.
# B1: 75110_02I16A (antibody, IgG1, V domains shown)
# VH: QVQLQQWGAGLLKPSETLSLTCDVYGGSFSGYYWTWIRQPPGKGLEWIGEINHSGTTNSNPSLKSRVTISVDTSKSQFSLRLSSVTAADTAVYFCTRELNWFDPWGQGTLVTVSS
# VL: DIQMTQSPSSVSASVGDRVTITCRASQDIANWLAWYQQKPGKAPQLLIYAASSLLGGVPSRFSGSGSGADFTLTISSLHPEDFATYYCQQANSFPYTFGQGTKLEIK
# notes: Tested as non-clonal AlivaMab Mouse Kappa hybridoma supernatant: human variable domains and human kappa, mouse Fc; also called 75110_02116A
# B2: 75110_01K10A (antibody, V domains shown)
# VH: EVQLVESGGALVQPGGSLRLSCAASGFTFRNYDMHWVRQATGKGLEWVSTIGTAGDTYYPGSVKGRFTISRENAKNSLYLQMNSLRAGDTAVYYCARGGDYYYGMDVWGQGTTVTVSS
# VL: EIVLTQSPDTLSLSPGERATLSCRASQSLSSVYLAWYQQKPGQAPRLLIYGASSRATGIPDRFSGTGSGTDFTLTISRLEPEDFAVYYCQQYGSSPFTFGPGTKVDIK
# notes: Tested as non-clonal AlivaMab Mouse Kappa hybridoma supernatant: human variable domains and human kappa, mouse Fc
# B3: 75110_04G16A (antibody, V domains shown)
# VH: QVQLQESGPGLVKPSQTLSLTCTVSGDSISSGYYYWSWIRQHPGKGLEWIGYISYSGSTYYNPSLKSRLTISVNTSKNQFSLKLSSLTAADTAVYYCARDRPSNFDAFDIWGQGTMVTVSS
# VL: B2 VL with D9G, L29V, S30G, V32T, S53F, T66S, F97L
# notes: as for B2
# B4: 75110_07E04A (antibody, IgG1, V domains shown)
# VH: B2 VH with A10G, A24V, R30S, N31S, N76K, S77F, D100Y
# VL: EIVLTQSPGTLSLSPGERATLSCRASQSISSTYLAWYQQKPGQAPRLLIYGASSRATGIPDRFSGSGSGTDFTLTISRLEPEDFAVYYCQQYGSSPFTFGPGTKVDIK
# notes: as for B2
# B5: 75110_05K11A (antibody, IgG1, V domains shown)
# VH: B2 VH with A10G, R30S, N31S, A40P, G61A, D100F
# VL: B2 VL with D9G, A19V, L29V, S31N, V32T, T66S, A85V, Y92H
# notes: as for B2
# B6: 75110_14P05A (antibody, V domains shown)
# VH: B2 VH with A10G, R30S, N31S, M34V, D100F
# VL: B2 VL with D9G, L29V, V32S, A44T, T66S, Y87F, Y92S, I107V
# notes: as for B2
# B7: 75110_04P06A (antibody, IgG1, V domains shown)
# VH: B2 VH with A10G, R30S
# VL: B2 VL with T66S, S77N, A85V
# notes: as for B2
# B8: 75110_01N04A (antibody, IgG1, V domains shown)
# VH: B2 VH with A10G, R30S, Y101F, M105L
# VL: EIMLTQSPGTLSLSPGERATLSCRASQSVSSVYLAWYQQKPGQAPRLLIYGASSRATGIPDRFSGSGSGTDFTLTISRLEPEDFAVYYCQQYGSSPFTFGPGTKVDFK
# notes: as for B2
# B9: 75110_01D24A (antibody, V domains shown)
# VH: QVQLQQWGAGLLKPSETLSLTCAVYGGSFSGYYWSWIRQPPGKGLEWIGEINHSGSTNYNPSLKSRVTISVDTSENQFSLKLNSVTAADTAVYYCARLVNWFDPWGQGTLVTVSS
# VL: EIQMTQSPSSVSASVGDRVTITCRASQDISNWLAWYQQKPGKAPNLLIFAASSLQTGVPSRFSGSGSGTDFTLTISSLQPDDFATYYCQQANSFPYSFGQGTNLGIK
# notes: as for B2
# Target: T1, human CD4 on cells (SKW3 cells; human PBMCs) (human, UniProt P01730 26-458)
# T1 construct: whole, on cells; SKW3 CD4 knockout cells served as the negative cell line; also called hCD4
# Test: FACS confirmation, supernatant on human PBMCs, anti-mouse Fc 647, CD4+ percent of viable cells
row,Binder,"PBMCs, anti-mFc 647 CD4+ Percent Bound of Viable"
1,B1,29%
2,B2,30%
3,B3,32%
4,B4,30%
5,B5,31%
6,B6,27%
7,B7,31%
8,B8,33%
9,B9,31%

# Target: T1, human CD4 on cells (SKW3 cells; human …)
# Test: FACS binning on SKW3 cells pre-incubated with supernatant; competitor OKT4-A488, its signal read; background 2163, max binding 8200
row,Binder,SKW3 FACS Binning OKT4 A488
1,B1,9810
2,B2,10800
3,B3,9640
4,B4,9940
5,B5,9730
6,B6,9340
7,B7,10100
8,B8,9720
9,B9,11100

# Target: T2, huCD4-HIS (human, UniProt P01730 26-390, limits assumed)
# T2 construct: the ELISA binning is not described in the text of this stretch
# Test: ELISA binning, competitor Ibalizumab; 100 ng/mL huCD4-HIS, anti-HIS HRP detection; background 45, max binding 3000000
row,Binder,Ibalizumab ELISA binning signal
1,B1,823000
2,B2,890000
3,B3,52600
4,B4,1.73e+06
5,B5,1.18e+06
6,B6,710000
7,B7,1.22e+06
8,B8,1.04e+06
9,B9,20300

# Target: T1, human CD4 on cells (SKW3 cells; human …)
# Test: FACS binning on SKW3 cells pre-incubated with supernatant; competitor RPA-T4-PE-Dazzle 594, its signal read; background 783, max binding 15000
row,Binder,SKW3 FACS Binning RPA-T4-PE-Dazzle 594
1,B1,2590
2,B2,1510
3,B3,13500
4,B4,2420
5,B5,2190
6,B6,20300
7,B7,2190
8,B8,2240
9,B9,15200

# Target: T1, human CD4 on cells (SKW3 cells; human …)
# Test: FACS confirmation, supernatant on SKW3 WT cells, anti-mouse Fc 647; background gMFI 3300
row,Binder,"SKW3 WT anti-mFc 647, gMFI"
1,B1,19400 gMFI
2,B2,24300 gMFI
3,B3,32500 gMFI
4,B4,22000 gMFI
5,B5,35900 gMFI
6,B6,24000 gMFI
7,B7,24500 gMFI
8,B8,28000 gMFI
9,B9,25000 gMFI

# Target: T1, human CD4 on cells (SKW3 cells; human …)
# Test: FACS binning on SKW3 cells pre-incubated with supernatant; competitor OKT4a read with anti-human A647 secondary; background 5000, max binding 35000
row,Binder,SKW3 FACS Binning OKT4a anti-hu A647 Secondary
1,B1,30700
2,B2,30000
3,B3,6740
4,B4,31300
5,B5,37600
6,B6,6110
7,B7,37400
8,B8,38100
9,B9,5320

# Target: T1, human CD4 on cells (SKW3 cells; human …)
# Test: FACS primary screen, non-clonal hybridoma supernatant, SKW3 vs SKW3 CD4 knockout cells, anti-mouse Fc A647
row,Binder,SKW3 WT vs KO anti-mFc-647
1,B1,3 fold
2,B2,4.6 fold
3,B3,6.3 fold
4,B4,2.9 fold
5,B5,4 fold
6,B6,4.6 fold
7,B7,3.9 fold
8,B8,3.7 fold
9,B9,6.8 fold

# Target: T1, human CD4 on cells (SKW3 cells; human …)
# Test: FACS confirmation, supernatant on SKW3 WT cells, anti-human kappa FITC; background gMFI 2500
row,Binder,"SKW3 WT anti-hu Kappa FITC, gMFI"
1,B1,5740 gMFI
2,B2,5940 gMFI
3,B3,6830 gMFI
4,B4,6360 gMFI
5,B5,6700 gMFI
6,B6,7520 gMFI
7,B7,5600 gMFI
8,B8,5640 gMFI
9,B9,5520 gMFI

# Target: T1, human CD4 on cells (SKW3 cells; human …)
# Test: FACS primary screen, non-clonal hybridoma supernatant, SKW3 vs SKW3 CD4 knockout cells, anti-human kappa FITC
row,Binder,SKW3 WT vs KO anti-hKappa-FITC
1,B1,1.7 fold
2,B2,2.2 fold
3,B3,2.3 fold
4,B4,1.8 fold
5,B5,1.8 fold
6,B6,2.8 fold
7,B7,1.6 fold
8,B8,1.9 fold
9,B9,2.5 fold

# Target: T1, human CD4 on cells (SKW3 cells; human …)
# Test: FACS confirmation, supernatant on human PBMCs, anti-mouse Fc 647, CD4+ gate
row,Binder,"PBMCs, anti-mFc 647 CD4+ gate - RL1 Binding"
1,B1,218000
2,B2,283000
3,B3,255000
4,B4,206000
5,B5,267000
6,B6,187000
7,B7,292000
8,B8,210000
9,B9,257000
